From PMC11609306, “Phosphorylation determines the glucose metabolism reprogramming and tumor-promoting activity of sine oculis homeobox 1” (Signal Transduction and Targeted Therapy, 2024) come the findings set out here.

The target of test [1] is T1, His-tagged ERK2 (UniProt P28482 1-360).
T1 construct: Extracellular signal-regulated protein kinase 2 (ERK2); Built in pET28a; also called His-tagged ERK1/2; source: E. coli BL21, purified (His-Sepharose beads)
In words: pull-down; GST pull-down: purified GST-SIX1 fusion protein with purified His-tagged ERK1/2. The settings on record: both partners purified.

For test [2], the target named is T2, His-tagged ERK1 (UniProt P27361 1-379).
T2 construct: Extracellular signal-regulated protein kinase 1 (ERK1); Built in pET28a; also called His-tagged ERK1/2; source: E. coli BL21, purified (His-Sepharose beads)
T2 sequence (P27361 whole entry): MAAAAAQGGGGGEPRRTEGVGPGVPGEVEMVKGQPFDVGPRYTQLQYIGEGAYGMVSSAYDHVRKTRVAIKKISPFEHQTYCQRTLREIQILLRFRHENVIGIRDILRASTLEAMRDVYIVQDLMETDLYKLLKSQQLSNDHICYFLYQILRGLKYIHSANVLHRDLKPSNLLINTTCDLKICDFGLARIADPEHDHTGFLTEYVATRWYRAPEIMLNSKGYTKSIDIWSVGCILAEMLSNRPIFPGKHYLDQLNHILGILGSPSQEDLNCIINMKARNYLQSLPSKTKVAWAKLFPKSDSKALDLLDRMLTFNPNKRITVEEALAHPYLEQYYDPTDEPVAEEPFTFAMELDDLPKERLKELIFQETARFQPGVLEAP
Described as above. The settings on record: both partners purified.

T1 sequence (P28482 whole entry): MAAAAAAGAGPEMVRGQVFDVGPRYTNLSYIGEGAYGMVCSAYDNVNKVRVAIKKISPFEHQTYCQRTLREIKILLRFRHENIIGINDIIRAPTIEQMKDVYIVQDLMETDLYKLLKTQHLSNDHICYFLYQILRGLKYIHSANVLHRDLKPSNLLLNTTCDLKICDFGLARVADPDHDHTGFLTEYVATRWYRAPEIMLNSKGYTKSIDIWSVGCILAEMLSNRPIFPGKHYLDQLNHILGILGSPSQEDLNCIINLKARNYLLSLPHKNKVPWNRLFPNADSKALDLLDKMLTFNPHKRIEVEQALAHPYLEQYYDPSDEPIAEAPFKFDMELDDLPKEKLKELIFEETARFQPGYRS

B1: GST-SIX1 fusion protein (natural protein, human, UniProt Q15475 1-284, looked up)
chain: MSMLPSFGFTQEQVACVCEVLQQGGNLERLGRFLWSLPACDHLHKNESVLKAKAVVAFHRGNFRELYKILESHQFSPHNHPKLQQLWLKAHYVEAEKLRGRPLGAVGKYRVRRKFPLPRTIWDGEETSYCFKEKSRGVLREWYAHNPYPSPREKRELAEATGLTTTQVSNWFKNRRQRDRAAEAKERENTENNNSSSNKQNQLSPLEGGKPLMSSSEEEFSPPQSPDQNSVLLLQGNMGHARSSNYSLPGLTASQPSHGLQTHQHQLQDSLLGPLTSSLVDLGS
notes: Sine oculis homeobox 1 (SIX1), human; Built in pGEX-KG; source: E. coli BL21, purified (glutathione-Sepharose 4B)
On to B1, for which the binding result in test [1] and in test [2] was “binds” each time.
